Patent US20080248046A1 (Human Genome Sciences, published 2008)

Legend:
[1] = biological target: T1, DR5 expressed from an expression construct in 293 cells (immunoprecipitated with Flag M2 antibody affinity … (human, UniProt O14763 52-440)); assay: co-transfection of 293 cells, Flag M2 immunoprecipitation, immunoblot with polyclonal antibody to FADD
T1 construct: The text says only 'the indicated expression constructs'; also called Death Domain Containing Receptor 5
Excerpt: (§1) 293 cells were co-transfected with the indicated expression constructs using calcium phosphate precipitation.

[2] = biological target: T1, DR5 expressed from an expression …; assay: co-transfection of 293 cells, Flag M2 immunoprecipitation, immunoblot with HRP-conjugated antibody to myc
Excerpt: as §1

Binder	binding result [1]	binding result [2]
FADD (other, UniProt Q13158 1-208, looked up, also called FADD/MORT1) MDPFLVLLHSVSSSLSSSELTELKFLCLGRVGKRKLERVQSGLDLFSMLLEQNDLEPGHTELLRELLASLRRHDLLRRVDDFEAGAAAGAAPGEEDLCAAFNVICDNVGKDWRRLARQLKVSDTKIDSIEDRYPRNLTERVRESLRIWKNTEKENATVAHLVGALRSCQMNLVADLVQEVQQARDLQNRSGAMSPMSWNSDASTSEAS	no binding	–
myc-tagged TRADD (other, UniProt Q15628 1-312, looked up, also called myc-TRADD) MAAGQNGHEEWVGSAYLFVESSLDKVVLSDAYAHPQQKVAVYRALQAALAESGGSPDVLQMLKIHRSDPQLIVQLRFCGRQPCGRFLRAYREGALRAALQRSLAAALAQHSVPLQLELRAGAERLDALLADEERCLSCILAQQPDRLRDEELAELEDALRNLKCGSGARGGDGEVASAPLQPPVPSLSEVKPPPPPPPAQTFLFQGQPVVNRPLSLKDQQTFARSVGLKWRKVGRSLQRGCRALRDPALDSLAYEYEREGLYEQAFQLLRRFVQAEGRRATLQRLVEALEENELTSLAEDLLGLTDPNGGLA	–	no binding
